Measured values: publication PMC5472179 (Nature Communications, 2017)
Ends that are not written are not given here. * marks the point of attachment. FITC = O=C1OC2(c3ccc(O)cc3Oc3cc(O)ccc32)c2ccc(NC(=S)*)cc21

Molecular target: T1, eVP30 110-272 (Ebola virus (Zaire), UniProt Q05323 110-272)
T1 sequence: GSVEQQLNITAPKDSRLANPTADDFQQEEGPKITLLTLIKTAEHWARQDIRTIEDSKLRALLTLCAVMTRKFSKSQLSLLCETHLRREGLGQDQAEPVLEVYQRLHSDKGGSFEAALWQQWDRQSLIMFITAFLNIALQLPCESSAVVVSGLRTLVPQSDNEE
Assay: fluorescence polarisation
Conditions: both partners purified

{FITC}-RTPTVAPPAPVYRDHS [FITC-labeled eNP600-615 peptide]: binds.

RTPTVAPPAPVYRDHS [unlabeled eNP600-615 peptide]: binds.
